In US20260000597A1 (priority 2018, published 2026):

Molecular target: AchR (Homo sapiens, UniProt P02708)
Experiment: ELISA of screened peptide phages on AchR versus streptavidin (OD450)
Format: binding
Settings: ELISA of selected 14-mer (L3) peptide phages on AchR, absorbance at 450 nm; Spep-2 positive control
How it was run: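 Reported as the ratio of AchR to streptavidin OD450, with TMB read-out after HRP anti-M13 detection. Wells coated with 5 μg/ml target overnight at 4 °C and BSA-blocked, then incubated 1 h at 30 °C with helper-rescued phage from individual plaques.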

AchR, sequence (P02708 21-457): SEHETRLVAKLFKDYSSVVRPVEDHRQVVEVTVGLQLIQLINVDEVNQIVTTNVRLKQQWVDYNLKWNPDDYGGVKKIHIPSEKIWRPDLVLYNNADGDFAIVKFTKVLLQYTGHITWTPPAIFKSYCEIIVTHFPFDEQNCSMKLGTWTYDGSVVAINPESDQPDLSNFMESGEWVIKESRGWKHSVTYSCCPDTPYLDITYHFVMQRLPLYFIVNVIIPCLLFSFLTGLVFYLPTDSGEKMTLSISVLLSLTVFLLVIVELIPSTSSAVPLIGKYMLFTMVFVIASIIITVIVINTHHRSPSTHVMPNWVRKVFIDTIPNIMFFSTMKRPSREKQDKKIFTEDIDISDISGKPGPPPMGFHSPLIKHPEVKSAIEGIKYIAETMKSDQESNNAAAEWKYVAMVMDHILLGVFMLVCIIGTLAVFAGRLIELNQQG

Substance	OD
L3-38 (TVVKSRKCSVRYNW; AchR binding peptide) [Peptide L3-38]	0.669
L3-39 (DDVKQRKKHPRVQT; AchR binding peptide) [Peptide L3-39]	0.654
L3-40 (ASPKGRRPTFRPQH; AchR binding peptide) [Peptide L3-40]	0.733
L3-41 (GWLKAKRFPSRPPT; AchR binding peptide) [Peptide L3-41]	0.81
L3-42 (ETNRTRKQCYKTTF; AchR binding peptide) [Peptide L3-42]	0.71
L3-43 (FTHKNRRDSLRVWM; AchR binding peptide) [Peptide L3-43]	0.93
L3-44 (PPFRLRKPLWRPQR; AchR binding peptide) [Peptide L3-44]	0.719
L3-45 (PGNRMKKYQNRVHG; AchR binding peptide) [Peptide L3-45]	0.735
L3-46 (SAHKKRKQTLRCSE; AchR binding peptide) [Peptide L3-46]	0.618
L3-47 (LYEKYKKHNNREDD; AchR binding peptide) [Peptide L3-47]	0.558
L3-48 (PHCRQKKFWIRCGT; AchR binding peptide) [Peptide L3-48]	0.622
L3-49 (VAFKTRRRVQRQSG; AchR binding peptide) [Peptide L3-49]	0.629
L3-50 (VFDKFRKTENRGVI; AchR binding peptide) [Peptide L3-50]	0.634
L3-51 (NHHKTKRCSVRFNI; AchR binding peptide) [Peptide L3-51]	0.754
L3-52 (GTFKWRKSGARQYL; AchR binding peptide) [Peptide L3-52]	0.757
L3-53 (HCLRTKKLINKICS; AchR binding peptide) [Peptide L3-53]	0.679
L3-54 (FFLRCRRLLGKVQV; AchR binding peptide) [Peptide L3-54]	0.784
L3-55 (HFPRARRFEHRCML; AchR binding peptide) [Peptide L3-55]	0.706
L3-56 (QISKLKRPSYRGDD; AchR binding peptide) [Peptide L3-56]	0.703
L3-57 (EEIKQKKLHLRVWF; AchR binding peptide) [Peptide L3-57]	0.674
L3-58 (SLPKWRKGGDRVFT; AchR binding peptide) [Peptide L3-58]	0.664

Substance	OD
L3-59 (HVYKNRRVWGKGWP; AchR binding peptide) [Peptide L3-59]	0.659
L3-60 (EDLRCKKLELRSVI; AchR binding peptide) [Peptide L3-60]	0.574
L3-61 (THDKCKKHNDKQAH; AchR binding peptide) [Peptide L3-61]	0.768
L3-62 (YPERPRKLQDKSYS; AchR binding peptide) [Peptide L3-62]	0.766
L3-63 (CPWRNRKAMIKGII; AchR binding peptide) [Peptide L3-63]	0.794
L3-64 (HEIKQKKYFHRGHD; AchR binding peptide) [Peptide L3-64]	0.799
L3-65 (CLEKLRKAVHRQRR; AchR binding peptide) [Peptide L3-65]	0.731
L3-66 (YISKSKKTAGRWFW; AchR binding peptide) [Peptide L3-66]	0.738
L3-67 (VTWKFRKAEKRWGY; AchR binding peptide) [Peptide L3-67]	0.786
L3-68 (YSSKSRKLSPRTPR; AchR binding peptide) [Peptide L3-68]	0.792
L3-69 (CVNRVKKSDSKGTW; AchR binding peptide) [Peptide L3-69]	0.733
L3-70 (DHERERRLWSRFPF; AchR binding peptide) [Peptide L3-70]	0.781
L3-71 (PLIKVKRGVGKLWN; AchR binding peptide) [Peptide L3-71]	0.78
L3-72 (TGCRCKRSMYKNLH; AchR binding peptide) [Peptide L3-72]	0.746
L3-73 (WTCRMRKYQLRTSE; AchR binding peptide) [Peptide L3-73]	0.771
L3-74 (IAIRPRKMTLKIHP; AchR binding peptide) [Peptide L3-74]	0.726
L3-75 (QIPKQKKQEQRAIS; AchR binding peptide) [Peptide L3-75]	0.72
L3-76 (QMGKFKKISLKNTF; AchR binding peptide) [Peptide L3-76]	0.701
L3-77 (VLIKQRKWQDRSCS; AchR binding peptide) [Peptide L3-77]	0.688
L3-78 (FITKSRRQQFRNQG; AchR binding peptide) [Peptide L3-78]	0.712
L3-79 (QQFKYRRECVKYGS; AchR binding peptide) [Peptide L3-79]	0.701

Substance	OD
L3-80 (MEGREKKSYNKGEN; AchR binding peptide) [Peptide L3-80]	0.589
L3-81 (PTWRHRRYCAKDIG; AchR binding peptide) [Peptide L3-81]	0.775
L3-82 (HMCRSKRVAWKNLI; AchR binding peptide) [Peptide L3-82]	0.783
L3-83 (SYLKCKRSDYKEVP; AchR binding peptide) [Peptide L3-83]	0.768
L3-84 (HTFKLRKLCQKLFE; AchR binding peptide) [Peptide L3-84]	0.739
L3-85 (QLVKLRKLARRVSY; AchR binding peptide) [Peptide L3-85]	0.735
L3-86 (SEVRPKKDHSRLFI; AchR binding peptide) [Peptide L3-86]	0.755
L3-87 (FLEKCRKFIIRVST; AchR binding peptide) [Peptide L3-87]	0.743
L3-88 (PETRHRKMFIRDFW; AchR binding peptide) [Peptide L3-88]	0.7
L3-89 (EWCKNKRWHSREYP; AchR binding peptide) [Peptide L3-89]	0.624
L3-90 (LWNRYKKLLMRIFW; AchR binding peptide) [Peptide L3-90]	0.818
L3-91 (CWCRQRKCFHKPWI; AchR binding peptide) [Peptide L3-91]	0.749
L3-92 (NLERTKKHGLKGYM; AchR binding peptide) [Peptide L3-92]	0.657
L3-93 (EGGRIKRPNYRGDG; AchR binding peptide) [Peptide L3-93]	0.7
L3-94 (PVLKLRKGRVRAQP; AchR binding peptide) [Peptide L3-94]	0.61
L3-95 (SISRLRKAHQKFIP; AchR binding peptide) [Peptide L3-95]	0.657
L3-96 (EWHKHRREMVRWGP; AchR binding peptide) [Peptide L3-96]	0.567
L3-97 (WSAKGRRMGCKSTM; AchR binding peptide) [Peptide L3-97]	0.684
L3-98 (PNGKVRKRIRRRYF; AchR binding peptide) [Peptide L3-98]	0.685
L3-99 (PCWKFRRAQMKWGI; AchR binding peptide) [Peptide L3-99]	0.692
